Key:
human PAC1 receptor = molecular target: T1, human PAC1 receptor (human, UniProt P41586 21-468); experiment: cell-based or functional assay
T1 sequence: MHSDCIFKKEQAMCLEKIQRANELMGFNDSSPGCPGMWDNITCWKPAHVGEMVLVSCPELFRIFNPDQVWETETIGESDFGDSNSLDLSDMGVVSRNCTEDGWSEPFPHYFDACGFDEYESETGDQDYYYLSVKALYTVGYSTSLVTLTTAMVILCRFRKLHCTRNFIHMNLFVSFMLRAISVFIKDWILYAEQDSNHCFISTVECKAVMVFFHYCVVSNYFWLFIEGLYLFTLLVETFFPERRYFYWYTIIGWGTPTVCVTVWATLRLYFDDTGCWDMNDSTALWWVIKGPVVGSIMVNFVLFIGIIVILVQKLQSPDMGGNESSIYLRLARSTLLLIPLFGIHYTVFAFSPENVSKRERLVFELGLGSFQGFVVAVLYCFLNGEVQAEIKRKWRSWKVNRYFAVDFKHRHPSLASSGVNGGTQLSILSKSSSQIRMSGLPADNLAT

human CGRP receptor = human CGRP receptor (human, UniProt Q16602 23-461; O60894 27-148); experiment: cell-based or functional assay
human CGRP receptor, sequence (Q16602 23-461 limits assumed, chain 1 of 2): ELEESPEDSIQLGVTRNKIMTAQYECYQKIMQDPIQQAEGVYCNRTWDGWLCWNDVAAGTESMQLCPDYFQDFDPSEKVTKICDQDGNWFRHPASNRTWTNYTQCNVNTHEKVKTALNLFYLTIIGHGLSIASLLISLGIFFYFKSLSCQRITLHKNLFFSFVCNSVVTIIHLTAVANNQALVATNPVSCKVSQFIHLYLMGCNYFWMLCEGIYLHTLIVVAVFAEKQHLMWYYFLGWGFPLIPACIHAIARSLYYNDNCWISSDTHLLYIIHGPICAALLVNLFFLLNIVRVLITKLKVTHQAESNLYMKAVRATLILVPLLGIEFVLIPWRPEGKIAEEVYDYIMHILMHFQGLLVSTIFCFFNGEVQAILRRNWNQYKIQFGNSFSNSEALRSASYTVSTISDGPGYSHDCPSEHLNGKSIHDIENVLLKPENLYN
human CGRP receptor, sequence (O60894 27-148 limits assumed, chain 2 of 2): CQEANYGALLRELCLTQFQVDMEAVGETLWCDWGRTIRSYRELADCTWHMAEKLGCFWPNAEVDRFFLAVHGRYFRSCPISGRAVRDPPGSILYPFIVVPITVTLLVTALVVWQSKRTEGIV
Also: test concentration or dose not given here.

B1: iPS:327679 (bispecific antibody, human IgG1, kappa, N297G)
light 1: DIQLTQSPSFLSASVGDRVTITCRASQSIGRSLHWYQQKPGKAPKLLIKYASQSLSGVPSRFSGSGSGTEFTLTISSLQPEDFATYYCHQSSRLPFTFGPGTKVDIKRTVAAPSVFIFPPSDEQLKSGTASVVCLLNNFYPREAKVQWKVDNALQSGNSQESVTEQDSKDSTYSLESTLTLSKADYEKHKVYACEVTHQGLSSPVTKSFNRGEC
heavy 1: not shown
light 2: EIVLTQSPGTLSLSPGERATLSCRASQSVSSGYLTWYQQKPGQAPRLLIYGASSRATGIPDRFSGSGSGTDFTLTISRLEPEDFAVYYCQQYGNSLSRFGQGTKLEIKRTVAAPSVFIFPPSDEQLKSGTASVVCLLNNFYPREAKVQWKVDNALQSGNSQESVTEQDSKDSTYSLKSTLTLSKADYEKHKVYACEVTHQGLSSPVTKSFNRGEC
heavy 2: not shown
% inhibition of human PAC1 (human PAC1 receptor): 23%
% inhibition of human CGRPR (human CGRP receptor): 86%

B2: iPS:327680 (bispecific antibody, human IgG1, kappa, N297G)
light 1: EIVLTQSPATLSLSPGERATLSCRASQSVGRSLHWYQQKPGQAPRLLIKYASQSLSGIPARFSGSGSGTDFTLTISSLEPEDFAVYYCHQSSRLPFTFGPGTKVDIKRTVAAPSVFIFPPSDEQLKSGTASVVCLLNNFYPREAKVQWKVDNALQSGNSQESVTEQDSKDSTYSLESTLTLSKADYEKHKVYACEVTHQGLSSPVTKSFNRGEC
heavy 1: not shown
light 2: EIVLTQSPGTLSLSPGERATLSCRASQSVSSGYLTWYQQKPGQAPRLLIYGASSRATGIPDRFSGSGSGTDFTLTISRLEPEDFAVYYCQQYGNSLSRFGQGTKLEIKRTVAAPSVFIFPPSDEQLKSGTASVVCLLNNFYPREAKVQWKVDNALQSGNSQESVTEQDSKDSTYSLKSTLTLSKADYEKHKVYACEVTHQGLSSPVTKSFNRGEC
heavy 2: not shown
% inhibition of human PAC1 (human PAC1 receptor): 92%
% inhibition of human CGRPR (human CGRP receptor): 88%

B3: iPS:327281 (bispecific antibody, human IgG1, kappa, lambda, N297G)
light 1: not shown
heavy 1: not shown
light 2: QSVLTQPPSVSAAPGQKVTISCSGSSSNIGNNYVSWYQQLPGTAPKLLIYDNNKRPSGIPDRFSGSKSGTSTTLGITGLQTGDEADYYCGTWDSRLSAVVFGGGTKLTVLGQPKANPTVTLFPPSSEELQANKATLVCLISDFYPGAVTVAWKADGSPVKAGVETTKPSKQSNNKYAAKSYLSLTPEQWKSHRSYSCQVTHEGSTVEKTVAPTECS
heavy 2: QVQLVESGGGVVQPGRSLRLSCAASGFTFSSFGMHWVRQAPGKGLEWVAVISFDGSIKYSVDSVKGRFTISRDNSKNTLFLQMNSLRAEDTAVYYCARDRLNYYDSSGYYHYKYYGMAVWGQGTTVTVSSASTKGPSVFPLAPSSKSTSGGTAALGCLVKDYFPEPVTVSWNSGALTSGVHTFPAVLQSSGLYSLESVVTVPSSSLGTQTYICNVNHKPSNTKVDKKVEPKSCDKTHTCPPCPAPELLGGPSVFLFPPKPKDTLMISRTPEVTCVVVDVSHEDPEVKFNWYVDGVEVHNAKTKPCEEQYGSTYRCVSVLTVLHQDWLNGKEYKCKVSNKALPAPIEKTISKAKGQPREPQVYTLPPSRKEMTKNQVSLTCLVKGFYPSDIAVEWESNGQPENNYKTTPPVLKSDGSFFLYSKLTVDKSRWQQGNVFSCSVMHEALHNHYTQKSLSLSPGK
% inhibition of human PAC1 (human PAC1 receptor): 50%
% inhibition of human CGRPR (human CGRP receptor): 82%

B4: iPS:327289 (bispecific antibody, human IgG1, kappa, lambda, N297G)
light 1: not shown
heavy 1: not shown
light 2: QSVLTQPPSVSAAPGQKVTISCSGSSSNIGNNYVSWYQQLPGTAPKLLIYDNNKRPSGIPDRFSGSKSGTSTTLGITGLQTGDEADYYCGTWDSRLSAVVFGGGTKLTVLGQPKANPTVTLFPPSSEELQANKATLVCLISDFYPGAVTVAWKADGSPVKAGVETTKPSKQSNNKYAAKSYLSLTPEQWKSHRSYSCQVTHEGSTVEKTVAPTECS
heavy 2: QVQLVESGGGVVQPGRSLRLSCAASGFTFSSFGMHWVRQAPGKGLEWVAVISFDGSIKYSVDSVKGRFTISRDNSKNTLFLQMNSLRAEDTAVYYCARDRLNYYDSSGYYHYKYYGMAVWGQGTTVTVSSASTKGPSVFPLAPSSKSTSGGTAALGCLVKDYFPEPVTVSWNSGALTSGVHTFPAVLQSSGLYSLESVVTVPSSSLGTQTYICNVNHKPSNTKVDKKVEPKSCDKTHTCPPCPAPELLGGPSVFLFPPKPKDTLMISRTPEVTCVVVDVSHEDPEVKFNWYVDGVEVHNAKTKPCEEQYGSTYRCVSVLTVLHQDWLNGKEYKCKVSNKALPAPIEKTISKAKGQPREPQVYTLPPSRKKMTKNQVSLTCLVKGFYPSDIAVEWESNGQPENNYKTTPPVLKSDGSFFLYSKLTVDKSRWQQGNVFSCSVMHEALHNHYTQKSLSLSPGK
% inhibition of human PAC1 (human PAC1 receptor): 75%
% inhibition of human CGRPR (human CGRP receptor): 72%

B5: iPS:327288 (bispecific antibody, human IgG1, kappa, lambda, N297G)
light 1: not shown
heavy 1: not shown
light 2: QSVLTQPPSVSAAPGQKVTISCSGSSSNIGNNYVSWYQQLPGTAPKLLIYDNNKRPSGIPDRFSGSKSGTSTTLGITGLQTGDEADYYCGTWDSRLSAVVFGGGTKLTVLGQPKANPTVTLFPPSSEELQANKATLVCLISDFYPGAVTVAWKADGSPVKAGVETTKPSKQSNNKYAAKSYLSLTPEQWKSHRSYSCQVTHEGSTVEKTVAPTECS
heavy 2: QVQLVESGGGVVQPGRSLRLSCAASGFTFSSFGMHWVRQAPGKGLEWVAVISFDGSIKYSVDSVKGRFTISRDNSKNTLFLQMNSLRAEDTAVYYCARDRLNYYDSSGYYHYKYYGMAVWGQGTTVTVSSASTKGPSVFPLAPSSKSTSGGTAALGCLVKDYFPEPVTVSWNSGALTSGVHTFPAVLQSSGLYSLESVVTVPSSSLGTQTYICNVNHKPSNTKVDKKVEPKSCDKTHTCPPCPAPELLGGPSVFLFPPKPKDTLMISRTPEVTCVVVDVSHEDPEVKFNWYVDGVEVHNAKTKPCEEQYGSTYRCVSVLTVLHQDWLNGKEYKCKVSNKALPAPIEKTISKAKGQPREPQVYTLPPSRKKMTKNQVSLTCLVKGFYPSDIAVEWESNGQPENNYKTTPPVLKSDGSFFLYSKLTVDKSRWQQGNVFSCSVMHEALHNHYTQKSLSLSPGK
% inhibition of human PAC1 (human PAC1 receptor): 88%
% inhibition of human CGRPR (human CGRP receptor): 67%

B6: iPS:327290 (bispecific antibody, human IgG1, kappa, lambda, N297G)
light 1: DIQLTQSPSFLSASVGDRVTITCRASQSIGRSLHWYQQKPGKAPKLLIKYASQSLSGVPSRFSGSGSGTEFTLTISSLQPEDFATYYCHQSSRLPFTFGPGTKVDIKRTVAAPSVFIFPPSDEQLKSGTASVVCLLNNFYPREAKVQWKVDNALQSGNSQESVTEQDSKDSTYSLESTLTLSKADYEKHKVYACEVTHQGLSSPVTKSFNRGEC
heavy 1: not shown
light 2: QSVLTQPPSVSAAPGQKVTISCSGSSSNIGNNYVSWYQQLPGTAPKLLIYDNNKRPSGIPDRFSGSKSGTSTTLGITGLQTGDEADYYCGTWDSRLSAVVFGGGTKLTVLGQPKANPTVTLFPPSSEELQANKATLVCLISDFYPGAVTVAWKADGSPVKAGVETTKPSKQSNNKYAAKSYLSLTPEQWKSHRSYSCQVTHEGSTVEKTVAPTECS
heavy 2: QVQLVESGGGVVQPGRSLRLSCAASGFTFSSFGMHWVRQAPGKGLEWVAVISFDGSIKYSVDSVKGRFTISRDNSKNTLFLQMNSLRAEDTAVYYCARDRLNYYDSSGYYHYKYYGMAVWGQGTTVTVSSASTKGPSVFPLAPSSKSTSGGTAALGCLVKDYFPEPVTVSWNSGALTSGVHTFPAVLQSSGLYSLESVVTVPSSSLGTQTYICNVNHKPSNTKVDKKVEPKSCDKTHTCPPCPAPELLGGPSVFLFPPKPKDTLMISRTPEVTCVVVDVSHEDPEVKFNWYVDGVEVHNAKTKPCEEQYGSTYRCVSVLTVLHQDWLNGKEYKCKVSNKALPAPIEKTISKAKGQPREPQVYTLPPSRKKMTKNQVSLTCLVKGFYPSDIAVEWESNGQPENNYKTTPPVLKSDGSFFLYSKLTVDKSRWQQGNVFSCSVMHEALHNHYTQKSLSLSPGK
% inhibition of human PAC1 (human PAC1 receptor): 60%
% inhibition of human CGRPR (human CGRP receptor): 70%

B7: iPS:327287 (bispecific antibody, human IgG1, kappa, lambda, N297G)
light 1: EIVLTQSPATLSLSPGERATLSCRASQSVGRSLHWYQQKPGQAPRLLIKYASQSLSGIPARFSGSGSGTDFTLTISSLEPEDFAVYYCHQSSRLPFTFGEGTKVDIKRTVAAPSVFIFPPSDEQLKSGTASVVCLLNNFYPREAKVQWKVDNALQSGNSQESVTEQDSKDSTYSLESTLTLSKADYEKHKVYACEVTHQGLSSPVTKSFNRGEC
heavy 1: not shown
light 2: QSVLTQPPSVSAAPGQKVTISCSGSSSNIGNNYVSWYQQLPGTAPKLLIYDNNKRPSGIPDRFSGSKSGTSTTLGITGLQTGDEADYYCGTWDSRLSAVVFGKGTKLTVLGQPKANPTVTLFPPSSEELQANKATLVCLISDFYPGAVTVAWKADGSPVKAGVETTKPSKQSNNKYAAKSYLSLTPEQWKSHRSYSCQVTHEGSTVEKTVAPTECS
heavy 2: QVQLVESGGGVVQPGRSLRLSCAASGFTFSSFGMHWVRQAPGKELEWVAVISFDGSIKYSVDSVKGRFTISRDNSKNTLFLQMNSLRAEDTAVYYCARDRLNYYDSSGYYHYKYYGMAVWGQGTTVTVSSASTKGPSVFPLAPSSKSTSGGTAALGCLVKDYFPEPVTVSWNSGALTSGVHTFPAVLQSSGLYSLESVVTVPSSSLGTQTYICNVNHKPSNTKVDKKVEPKSCDKTHTCPPCPAPELLGGPSVFLFPPKPKDTLMISRTPEVTCVVVDVSHEDPEVKFNWYVDGVEVHNAKTKPCEEQYGSTYRCVSVLTVLHQDWLNGKEYKCKVSNKALPAPIEKTISKAKGQPREPQVYTLPPSRKEMTKNQVSLTCLVKGFYPSDIAVEWESNGQPENNYKTTPPVLKSDGSFFLYSKLTVDKSRWQQGNVFSCSVMHEALHNHYTQKSLSLSPGK
% inhibition of human PAC1 (human PAC1 receptor): 71%
% inhibition of human CGRPR (human CGRP receptor): 86%

B8: iPS:326631 (bispecific antibody, human IgG2, kappa, lambda)
light 1: not shown
heavy 1: QVQLQQSGPGLVKPSQTLSLTCAISGDSVSSNSATWNWIRQSPSRGLEWLGRTYYRSKWSNHYAVSVKSRITINPDTSKSQFSLQLNSVTPEDTAVYYCARGTWKQLWFLDHWGQGTLVTVSSASTKGPSVFPLAPCSRSTSESTAALGCLVKDYFPEPVTVSWNSGALTSGVHTFPAVLQSSGLYSLKSVVTVPSSNFGTQTYTCNVDHKPSNTKVDKTVERKCCVECPPCPAPPVAGPSVFLFPPKPKDTLMISRTPEVTCVVVDVSHEDPEVQFNWYVDGVEVHNAKTKPREEQFNSTFRVVSVLTVVHQDWLNGKEYKCKVSNKGLPAPIEKTISKTKGQPREPQVYTLPPSREEMTKNQVSLTCLVDGFYPSDIAVEWESNGQPENNYDTTPPMLDSDGSFFLYSDLTVDKSRWQQGNVFSCSVMHEALHNHYTQKSLSLSPGK
light 2: not shown
heavy 2: not shown
% inhibition of human PAC1 (human PAC1 receptor): 79%
% inhibition of human CGRPR (human CGRP receptor): 89%
